Results on one molecule are retold here after patent US20150246949A1, “Desmoglein 2 (DSG2) Binding Proteins and Uses Therefor” (UNIVERSITY OF WASHINGTON THROUGH ITS CENTER FOR …, priority 2012, published 2015).

The target of this assay is T1, soluble recombinant DSG2 (Homo sapiens, UniProt Q14126).
T1 construct: purchased Leinco Technologies, Inc. (St. Louis, Mo.)
T1 sequence (Q14126 50-609 limits assumed): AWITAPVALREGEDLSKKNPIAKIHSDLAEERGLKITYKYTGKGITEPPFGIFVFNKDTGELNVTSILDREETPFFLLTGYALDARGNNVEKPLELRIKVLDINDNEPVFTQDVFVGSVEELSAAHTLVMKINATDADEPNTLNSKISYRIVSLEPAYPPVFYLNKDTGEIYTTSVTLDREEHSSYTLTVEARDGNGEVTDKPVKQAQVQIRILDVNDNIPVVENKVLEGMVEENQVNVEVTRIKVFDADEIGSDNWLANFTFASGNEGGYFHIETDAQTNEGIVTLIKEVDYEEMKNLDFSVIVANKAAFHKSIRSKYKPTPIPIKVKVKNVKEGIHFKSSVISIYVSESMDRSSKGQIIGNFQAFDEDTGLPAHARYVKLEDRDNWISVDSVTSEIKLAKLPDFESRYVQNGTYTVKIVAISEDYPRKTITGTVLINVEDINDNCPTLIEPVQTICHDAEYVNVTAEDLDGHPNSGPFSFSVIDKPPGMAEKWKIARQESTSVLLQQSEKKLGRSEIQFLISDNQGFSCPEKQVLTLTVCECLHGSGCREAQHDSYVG
The experiment in a line: Western blot of dimeric Ad3 fiber knob mutants probed with soluble DSG2. In kind it is binding. The note with it: purified dimerized knob mutants. The source says: FIG. 1. Residues found to be critically involved in binding to DSG2. A) Shown are the amino acid sequences of the Ad3 and Ad14p1 fiber knob. Beta sheets present in the Ad3 knob (PDB accession number 1H7Z_A) and Ad14 knob (PDB: 3F0Y_A) are indicated by lines. Black arrows indicate residues within the Ad3 fiber knob which, when mutated individually, ablate or reduce binding to DSG2. […] B) Schematic structure of dimeric Ad3 fiber knob mutants. The fiber knob domain and one shaft motif was fused through a flexible linker to a homodimerizing K-coil domain (41). The proteins are self-dimerizing and can be purified by His-Ni-NTA affinity chromatography. C-F) Analysis of binding of dimeric Ad3 fiber knob mutants to soluble DSG2. C and D) Coomassie staining. 10 μg of purified Ad3 fiber knob (unboiled) were loaded per lane. Trimeric forms of the fiber knobs are indicated by an arrow. The gel contained SDS and the loading buffer containing DTT, which caused the disassembly of dimers of trimeric fiber knobs as previously reported (41). E and F): Western blot using soluble recombinant DSG2 as a probe, followed by anti-DSG2-mAb and anti-mouse IgG-HRP. For comparison, JO-1 (0.5 μg/lane) is shown. The Western blots were scanned and signals were quantified.
Mini-PROTEAN precast gels (BIO-RAD, Hercules, Calif.) with 4-15% gradient polyacrylamide were used. A total of […] protein mixed with 2× loading buffer (10 mM Tris-HCl, pH6.8, 200 mM DTT, 4% SDS, 20% glycerol, 0.2% bromophenol blue) was loaded per lane. Samples were either boiled (B) for 5 min or loaded unboiled (UB). The following running buffer was used: 25 mM Tris, pH8.3, 0.192 M glycine, 0.1% SDS. After electrophoresis, proteins were transferred to nitrocellulose and incubated with recombinant human DSG2 protein and anti-DSG2 antibodies as described previously (42). The Western blots were scanned and quantified using the ImageJ 1.32 software (National Institutes of Health, Bethesda, Md.). JO-1 band intensity was set as 100%. […]

B1: D261N (protein)
chain: MKVSALKEKVSALKEKVSALKEKVSALKEKVSALKEGSGGGSGGGSGGGSNSIALKNNTLWTGPKPEANCIIEYGKQNPDSKLTLILVKNGGIVNGYVTLMGASDYVNTLFKNKNVSINVELYFDATGHILPDSSSLKTDLELKYKQTADFSARGFMPSTTAYPFVLPNAGTHNENYIFGQCYYKASNGALFPLEVTVMLNKRLPDSRTSYVMTFLWSLNAGLAPETTQATLITSPFTFSYIREDD
Turning to B1, the “DSG2 binding in Western blot compared to JO-1” value was “almost completely ablated for DSG2 binding”.
